Publication PMC4598028, “pH-Dependent Assembly and Segregation of the Coiled-Coil Segments of Yeast Putative Cargo Receptors Emp46p and Emp47p” (PLoS ONE, 2015)
Values belong to the molecule of their own block, whether it stands above or below them.

What was measured:
[1] = target: E303A mutant of Emp46p^CC (yeast) (UniProt Q12396); assay: cross-linking; dimethyl suberimidate (DMS) 0.1 mg/mL, 60 or 120 min, room temperature, 100 mM carbonate/bicarbonate buffer pH 8.9; SDS-PAGE
[2] = target: coiled-coil segment of Emp47p, Emp47p^CC (254–374) (yeast) (UniProt P43555); assay: native MS; nanoflow electrospray under non-denaturing conditions, 200 mM ammonium acetate pH 7.4; single proteins 43 uM; mixtures of Emp47p^CC 33 uM with 17, 33 and 67 uM Emp46p^CC, 25 °C, 30 min
[3] = target: the molecule itself; assay: native MS; mass spectra under non-denaturing conditions measured at pH 5.0; Emp47p^CC fixed, Emp46p^CC varied
[4] = target: the molecule itself; assay: SEC; Superose 12 gel filtration; Emp47p^CC 70 uM alone or with Emp46p^CC or its E303A mutant; 10 mM phosphate buffer pH 7.4, 150 mM NaCl

- stoichiometry N [1]: 2
- stoichiometry N (Emp46p^CC per Emp47p^CC (printed as 1:3)) [2]: 0.33
Molecule: E303A mutant of Emp46p^CC (from UniProt Q12396 252-355) (domain or fragment)

B1: coiled-coil segment of Emp47p, Emp47p^CC (254–374) (domain or fragment, yeast, UniProt P43555 282-402, looked up)
chain: GKEKLIEKTAFDADKDKITNYELYKKLDRVEGKILANDINALETKLNDVIKVQQELLSFMTTITKQLSSKPPANNEKGTSTDDAIAEDKENFKDFLSINQKLEKVLVEQEKYREATKRHGQ
notes: Emp47p, yeast putative cargo receptor, coiled-coil segment, residues 254-374 by the methods (the results print 271–274); in mixtures with Emp46p^CC it forms 1:3 and 2:2 heterotetramers; the results print (271–274); also called Emp47^CC; source: E. coli BL21-CodonPlus, purified (Chelating Sepharose, tag cleaved, gel filtration)
- stoichiometry N [3]: 3
- stoichiometry N [4]: 4

B2: coiled-coil segment of Emp46p, Emp46p^CC (252–355) (domain or fragment, yeast, UniProt Q12396 298-401, looked up)
chain: EESFREKMPFSDKEESITSNELFEKMNKLEGKIMANDIDPLLRKMNKIVENERELIQRLRPLLDLKKTAISDDSFQDFLSMNANLDRLIKEQEKIRQDAKLYGK
notes: Emp46p, yeast putative cargo receptor, coiled-coil segment, residues 252-355; Monomer-dimer equilibrium by SV-AUC and native MS; also called wild-type Emp46p^CC; source: E. coli BL21-CodonPlus, purified (Chelating Sepharose, tag cleaved, gel filtration)
- stoichiometry N [3]: 2
